This experiment has as its target T1, endogenous beta-catenin of human HEK293 cells (human, UniProt P35222 2-781).
T1 construct: also called β-catenin
T1 sequence (looked up): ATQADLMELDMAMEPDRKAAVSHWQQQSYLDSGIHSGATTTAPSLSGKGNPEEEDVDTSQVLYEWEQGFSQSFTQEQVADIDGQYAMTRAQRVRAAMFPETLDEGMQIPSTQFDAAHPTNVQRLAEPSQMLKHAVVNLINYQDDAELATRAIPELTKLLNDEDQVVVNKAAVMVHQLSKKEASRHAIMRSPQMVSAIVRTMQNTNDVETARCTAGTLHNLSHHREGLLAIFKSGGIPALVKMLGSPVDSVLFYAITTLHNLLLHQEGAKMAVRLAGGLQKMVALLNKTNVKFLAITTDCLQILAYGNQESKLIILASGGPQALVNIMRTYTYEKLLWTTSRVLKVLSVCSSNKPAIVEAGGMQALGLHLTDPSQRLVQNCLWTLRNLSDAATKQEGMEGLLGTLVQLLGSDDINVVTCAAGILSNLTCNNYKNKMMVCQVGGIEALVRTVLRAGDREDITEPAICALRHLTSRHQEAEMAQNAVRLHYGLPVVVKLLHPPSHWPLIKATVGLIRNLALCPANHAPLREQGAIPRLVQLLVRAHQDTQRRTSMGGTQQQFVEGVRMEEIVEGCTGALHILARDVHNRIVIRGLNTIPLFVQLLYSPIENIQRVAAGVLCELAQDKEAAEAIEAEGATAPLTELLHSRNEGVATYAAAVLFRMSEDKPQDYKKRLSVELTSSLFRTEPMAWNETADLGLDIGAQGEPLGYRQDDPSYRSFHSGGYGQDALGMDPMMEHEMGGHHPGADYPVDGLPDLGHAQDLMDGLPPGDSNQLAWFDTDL
Nature of the experiment: Talon cobalt-affinity isolation of His-tagged hPSF from 1% CHAPSO lysates of stable HEK293 cells, Western blot. Background: A western blot detects proteins with antibodies after separation by electrophoresis.

B1: human presenilin stabilization factor (PSF) with C-terminal V5 and poly-histidine (6xHis) tags (other, not shown: small tags and cut ends)
chain: MGAAVFFGCTFVAFGPAFALFLITVAGDPLRVIILVAGAFFWLVSLLLASVVWFILVHVTDRSDARLQYGLLIFGAAVSVLLQEVFRFAYYKLLKKADEGLASLSEDGRSPISIRQMAYVSGLSFGIISGVFSVINILADALGPGVVGIHGDSPYYFLTSAFLTAAIILLHTFWGVVFFDACERRRYWALGLVVGSHLLTSGLTFLNPWYEASLLPIYAVTVSMGLWAFITAGGSLRSIQRSSCVRTDYLD
notes: Stably expressed in HEK293 (APP-695) cells (clonal line 2-7), solubilised in 1% CHAPSO and captured on Talon cobalt resin; Both the full-length (~25 kDa) and the processed (~15 kDa) forms were isolated; also called hPSF; PSF-V5
B1: the binding result is “no binding”.

The values are drawn from patent publication US20050095604A1 (published 2005).
